In publication PMC3033571 (2011) one finds Kd data, which are given here for three molecules.

Test [1] concerns the target T1, CaV1.2 IQ domain IQ domain (Homo sapiens, UniProt Q13936, Ca2+). In words: ITC, 25°C.
Test [2] has as its target T1, CaV1.2 IQ domain IQ domain. Description: ITC, 15°C.
Test [3] deals with T1, CaV1.2 IQ domain IQ domain. Description: competition ITC.

T1 sequence (Q13936 1665-1685): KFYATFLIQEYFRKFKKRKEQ

B1: CaBP1 C-lobe C-lobe (protein)
chain: ADMIGVKELRDAFREFDTNGDGEISTSELREAMRKLLGHQVGHRDIEEIIRDVDLNGDGRVDFEEFVRMMSR
Consider B1, for which the Kd in test [1] turned out to be 15 nM; in test [2] it was 10.5 nM.

B2: CaBP1 N-lobe N-lobe (protein)
chain: not shown
In test [2], B2 yielded a Kd of 1100 nM.

B3: CaBP1 16-167 (protein)
chain: ARLQRVLGLGSRREPRSLPAGGPAPRRTAPPPPGHASAGPAAMSSHIAKSESKTSLLKAAAAAASGGSRAPRHGPARDPGLPSRRLPGSCPATPQSSGDPSSRRPLCRPAPREEGARGSQRVLPQAHCRPREALPAAASRPSPSSPLPPARG
Turning to B3, in test [3], binding was put at a Kd of 0.288 nM.
